Results on 16 molecules are retold here after patent US20200123254A1 (LENTIGEN TECHNOLOGY, published 2020).

The labels stand for the following.
B1: human anti-CD19 ScFv binder M19217 (scFv)
scFv: EVQLVQSGAEVKKPGASVKVSCKASGYTFTSYYMHWVRQAPGQGLEWMGIINPSGGSTSYAQKFQGRVTMTRDTSTSTVYMELSSLRSEDTAVYYCARSDRGITATDAFDIWGQGTMVTVSSGGGGSGGGGSGGGGSQSVLTQPPSVSVAPGQTAKITCGGSDIGNKNVHWYQQKPGQAPVLVVYDDYDRPSGIPERFSGSNSGDAATLTISTVEVGDEADYFCQVWDSSGDPYWVFGGGTQLTVLG
notes: also called ScFv1; founder clone
B2: human anti-CD19 ScFv binder M19217-40 (scFv)
scFv: B1 scFv with K13R, E46V, I50L, I157T, F223V, S229G
notes: also called ScFv8
B3: human anti-CD19 ScFv binder M19217-23 (scFv)
scFv: B1 scFv with S31G, M48I, I50L, A61E, T69A, N166D, S229G, S230I
notes: also called ScFv5
B4: human anti-CD19 ScFv binder M19217-7 (scFv)
scFv: B1 scFv with K12N, I50M, A105S, V149L, D189N, A206S, S229G
notes: also called ScFv4
B5: human anti-CD19 ScFv binder M19217-29 (scFv)
scFv: B1 scFv with I50M, V169A, P195S, S229G, Y234F
notes: also called ScFv6
B6: human anti-CD19 ScFv binder M19217-2 (scFv)
scFv: B1 scFv with L45F, I50L, G56S, S85N, S148P, T158I, S229G
notes: also called ScFv3
B7: human anti-CD19 ScFv binder M19217-38 (scFv)
scFv: B1 scFv with K13R, Q43R, I50L, K63E, T74M, T104S, T154M, D189N, S229G, V245D
notes: also called ScFv7
B8: human anti-CD19 ScFv binder M19217-1 (scFv)
scFv: B1 scFv with I50L, Q153R, T154M, S229G, V236M
notes: also called ScFv2
B9: LTG2050 (LP-M19217-CD8 TM-41BB-CD3 zeta) CAR (other)
chain: EVQLVQSGAEVKKPGASVKVSCKASGYTFTSYYMHWVRQAPGQGLEWMGIINPSGGSTSYAQKFQGRVTMTRDTSTSTVYMELSSLRSEDTAVYYCARSDRGITATDAFDIWGQGTMVTVSSGGGGSGGGGSGGGGSQSVLTQPPSVSVAPGQTAKITCGGSDIGNKNVHWYQQKPGQAPVLVVYDDYDRPSGIPERFSGSNSGDAATLTISTVEVGDEADYFCQVWDSSGDPYWVFGGGTQLTVLGAAATTTPAPRPPTPAPTIASQPLSLRPEACRPAAGGAVHTRGLDFACDIYIWAPLAGTCGVLLLSLVITLYCKRGRKKLLYIFKQPFMRPVQTTQEEDGCSCRFPEEEEGGCELRVKFSRSADAPAYQQGQNQLYNELNLGRREEYDVLDKRRGRDPEMGGKPRRKNPQEGLYNELQKDKMAEAYSEIGMKGERRRGKGHDGLYQGLSTATKDTYDALHMQALPPR
notes: Chimeric antigen receptor on the surface of transduced primary human T cells; also called ScFv1-CD8 TM-41BB-CD3 zeta
B10: LTG2071 (LP-M19217-40-CD8 TM-41BB-CD3 zeta) CAR (other)
chain: B9 chain with K13R, E46V, I50L, I157T, F223V, S229G
notes: Chimeric antigen receptor on the surface of transduced primary human T cells; also called ScFv8-CD8TM-4-1BB-CD3 zeta
B11: LTG2066 (LP-M19217-2-CD8 TM-41BB-CD3 zeta) CAR (other)
chain: B9 chain with L45F, I50L, G56S, S85N, S148P, T158I, S229G
notes: Chimeric antigen receptor on the surface of transduced primary human T cells; also called ScFv3-CD8TM-4-1BB-CD3 zeta
B12: LTG2067 (LP-M19217-7-CD8 TM-41BB-CD3 zeta) CAR (other)
chain: B9 chain with K12N, I50M, A105S, V149L, D189N, A206S, S229G
notes: Chimeric antigen receptor on the surface of transduced primary human T cells; also called ScFv4-CD8TM-4-1BB-CD3 zeta
B13: LTG2069 (LP-M19217-29-CD8 TM-41BB-CD3 zeta) CAR (other)
chain: B9 chain with I50M, V169A, P195S, S229G, Y234F
notes: Chimeric antigen receptor on the surface of transduced primary human T cells; also called ScFv6-CD8TM-4-1BB-CD3 zeta
B14: LTG2068 (LP-M19217-23-CD8 TM-41BB-CD3 zeta) CAR (other)
chain: B9 chain with S31G, M48I, I50L, A61E, T69A, N166D, S229G, S230I
notes: Chimeric antigen receptor on the surface of transduced primary human T cells; also called ScFv5-CD8TM-4-1BB-CD3 zeta
B15: LTG2065 (LP-M19217-1-CD8 TM-41BB-CD3 zeta) CAR (other)
chain: B9 chain with I50L, Q153R, T154M, S229G, V236M
notes: Chimeric antigen receptor on the surface of transduced primary human T cells; also called ScFv2-CD8TM-4-1BB-CD3 zeta
B16: LTG2070 (LP-M19217-38-CD8 TM-41BB-CD3 zeta) CAR (other)
chain: B9 chain with K13R, Q43R, I50L, K63E, T74M, T104S, T154M, D189N, S229G, V245D
notes: Chimeric antigen receptor on the surface of transduced primary human T cells; also called ScFv7-CD8TM-4-1BB-CD3 zeta

Changes are numbered by the printed parent chain.

The first assay concerns the target T1, recombinant human CD19 (labeled CD19) (human, UniProt P15391 20-291, limits assumed, fluorescent label, kind and site not stated).
T1 construct: The antigen titrated on yeast is only called 'labeled CD19'; also called fluorescently tagged antigen
T1 sequence (looked up): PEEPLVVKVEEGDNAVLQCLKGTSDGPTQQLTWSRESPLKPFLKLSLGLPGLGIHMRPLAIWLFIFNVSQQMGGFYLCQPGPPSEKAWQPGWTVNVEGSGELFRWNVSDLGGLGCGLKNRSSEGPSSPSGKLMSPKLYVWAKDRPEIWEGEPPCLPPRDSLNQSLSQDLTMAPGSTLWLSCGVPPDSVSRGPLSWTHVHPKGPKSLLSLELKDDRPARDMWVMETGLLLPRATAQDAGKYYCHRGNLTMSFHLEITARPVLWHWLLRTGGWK
In words: flow cytometry of yeast-displayed scFv titrated with decreasing amounts of labeled CD19. Here is the method:
To increase the affinity of m19217, a yeast-display m19217 mutant scFv library was created by using error-prone PCR to create random point mutations in scFv gene sequences. After electroporation, the resulting mutant library was then grown overnight at 30° C. for 16 hours in SDCAA medium and then switched into SGCAA medium at 30° C. for another 16 hours. The mutant library was then sorted through MACS (immunomagentic column, Miltenyi Biotec) with CD19-Fc as the capture antigen to downsize the library and to increase the population of mutants that could bind to CD19-Fc. The strongest binders were then selected by double staining the pools with Anti-c-Myc-Alexa 488 and CD19-Fc/Anti-Hu-Fc and selecting for the binders that had the highest binding affinities as well as c-Myc expression levels. […] Binidng affinities were estimated by flow cytometry of yeast pools using decreasing amounts of labeled CD19.
As to B1, the EC50 was found to be 0.5 µg/mL.

Turning to B2, the EC50 was less than 0.01 µg/mL.

As for B3, the EC50 was less than 0.01 µg/mL.

As to B4, the EC50 is less than 0.01 µg/mL.

For the molecule B5, the EC50 was less than 0.01 µg/mL.

With B6, the EC50 was less than 0.01 µg/mL.

Consider B7, for which the EC50 is less than 0.01 µg/mL.

In the case of B8, the EC50 was less than 0.01 µg/mL.

The next assay has as its target T2, CD19-Fc peptide (R&D, Minneapolis, Minn.) (UniProt P15391 20-291).
T2 construct: Bought reagent; also called recombinant CD19-Fc peptide; not shown: Fc part; bought reagent, detected with anti-human Fc F(ab')2-AF647
T2 sequence (looked up): T1 sequence (looked up)
In words: flow cytometry of CAR-transduced primary human T cells stained with CD19-Fc then anti Fc-AF647; untransduced T cells set as 0%. Here is the method:
FIG. 3 depicts anti-CD19 CAR surface expression in primary human T cells. CAR T cells redirected to CD19 tumor antigen via the use of ScFv domains (as listed in each panel) were generated by lentiviral transduction with CAR expression constructs. CART detection was performed by flow cytometry. T cells were washed twice in cold PBS-EDTA buffer and stained with CD19-Fc peptide followed by anti Fc-AF647 reagent. At least 20,000 cells were acquired for each analysis. Cells were gated based on forward scatter and side scatter, singlet discrimination, and 7AAD negativity so that only viable cells were analyzed. Data were acquired on MACSQuant 10 flow cytometer in the APC channel. UTD, un-transduced negative control cells. The marker in each panel identifies the CAR-expressing population, and are listed as percent of total transduced T cells analyzed.
For cell staining, half a million CAR T transduced cells were harvested from culture, washed two times in cold AutoMACS buffer supplemented with 0.5% bovine serum albumin (Miltenyi Biotec), and CAR surface expression detected by staining with CD19-Fc peptide (R&D, Minneapolis, Minn.) followed by anti Fc-AF647 conjugate (Jackson ImmunoResearch, West Grove, Pa.). Non-transduced cells were used as negative controls. Dead cells in all studies were excluded by 7AAD staining (BD Biosciences, San Jose, Calif.). Cells were washed twice and resuspended in 200 ul Staining Buffer before quantitative analysis by flow cytometry. Flow cytometric analysis was performed on a MACSQuant®10 Analyzer (Miltenyi Biotec), and data plots were generated using FlowJo software (Ashland, Oreg.).
T cells were activated on culture Day 0 with TransAct T cell reagent (active engagement of CD3 and CD28 antigens, Miltenyi Biotec, Inc.) in the presence of IL-2 as described in Materials and Methods. On culture Day 8-10, expression of anti-CD19 CARs on T cell surface was detected by CD19-Fc peptide followed by anti Fc-AF647 and analyzed by flow cytometry.
In the case of B9, the “CAR expression level (percent of transduced T cells stained by CD19-Fc)” value is 46%.

As to B10, the “CAR expression level (percent of transduced T cells stained by CD19-Fc)” value is 21%.

As to B11, the “CAR expression level (percent of transduced T cells stained by CD19-Fc)” value is 21%.

Take B12: the “CAR expression level (percent of transduced T cells stained by CD19-Fc)” value was found to be 81%.

In the case of B13, the “CAR expression level (percent of transduced T cells stained by CD19-Fc)” value is 68%.

B14: the “CAR expression level (percent of transduced T cells stained by CD19-Fc)” value came out at 54%.

Turning to B15, the “CAR expression level (percent of transduced T cells stained by CD19-Fc)” value is 64%.

On to B16, for which the “CAR expression level (percent of transduced T cells stained by CD19-Fc)” value stood at 47%.
